The numbers were not newly measured in article PMC10103170, which cites them from elsewhere.

The data set addresses Ubiquitin (Homo sapiens) (UniProt P0CG48).

ALIX V domain, sequence (Q8WUM4 360-702): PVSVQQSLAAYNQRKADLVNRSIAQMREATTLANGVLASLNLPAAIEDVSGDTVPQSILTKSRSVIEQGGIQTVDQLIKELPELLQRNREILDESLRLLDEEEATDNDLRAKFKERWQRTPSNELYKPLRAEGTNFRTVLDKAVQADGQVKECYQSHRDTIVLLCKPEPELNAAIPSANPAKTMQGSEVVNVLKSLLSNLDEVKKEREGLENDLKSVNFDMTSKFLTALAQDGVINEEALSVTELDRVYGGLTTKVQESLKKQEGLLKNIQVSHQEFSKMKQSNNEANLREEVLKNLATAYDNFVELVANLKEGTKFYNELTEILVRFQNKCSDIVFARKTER

Usually Kd stands for the concentration at which binding is half-saturated. On to ALIX V domain (from UniProt Q8WUM4), for which the Kd is 120 µM.
